Results as given in patent US20260209317A1.
Like-named read-outs stand apart in the source and are kept apart here.

Experiments:
[1] = molecular target: T1, SARS-CoV-2 Omicron BA.1 spike protein (on pseudotyped lentivirus) (SARS-CoV-2), P0DTC2; experiment: cell-based or functional assay
[2] = molecular target: T1, SARS-CoV-2 Omicron BA.1 spike protein …
[3] = molecular target: SARS-CoV-2 WA-1 S-2P spike protein (SARS-CoV-2), P0DTC2; settings: remark: other sources report otherwise

Binder	neutralization IC50 [1] [µg/mL]	neutralization IC50 [2] [µg/mL]	neutralization IC80 [2] [µg/mL]	% inhibition of ACE2 binding [3] [%]
B2-269.1 (antibody, V domains shown) VH: EVQLVESGGGLVQPGGSLRLSCAASGITVSSNYMSWVRQPPGKGLDWVSLIFSGGSTYYADSVKGRFTISRDNSKNTLYLQMNSLRAEDTAVYYCARVGVAVAGTDYDIWGQGTMVTVSS VL: DIQMTQSPSSLSASVGDRVTITCQASQDINKYLNWYQQKPGKAPKLLIYDASNLETGVPSRFSGSGSGTDFTFTISSLQPEDIATYYCLHYENLPLSFGGGTKVEIK	< 0.1	0.01	0.02	–
A19-46.1 (antibody) chain 1: QVQLVESGGGVVQPGRSLRLSCAASGFTLSSYGMHWVRQAPGKGLEWVAVISYDGSNKYYVDSVKGRFTISRDNSKNTLYLQMNSLRAEDTAVYYCARGWAYWELLPDYYYGMDVWGQGTTVTVSS chain 2: QTVVTQEPSFSVSPGGTVTLTCGLSSGSVSTAYFPSWYQQTPGQAPRTLIYGTNTRSSGVPDRFSGSILGNKAALTITGAQADDESDYYCVLYMGRGIVVFGGGTKLTVL	–	–	–	98
